These results are taken from paper PMC6309520.

As a reminder, the Km is the concentration of substrate that gives half-maximal velocity. As usually defined, the Vmax is the top rate of the reaction or transport when substrate is in excess.

Like-named read-outs stand apart in the source and are kept apart here.

What all share (assay): Michaelis-Menten kinetics
Substrate in data set [1]: Nc1ncnc2c1ncn2[C@@H]1O[C@H](COP(=O)(O)OP(=O)(O)OC[C@H]2O[C@H](Oc3ccc4c(C(F)(F)F)cc(=O)oc4c3)[C@H](O)[C@@H]2O)[C@@H](O)[C@H]1O
Type of data set: biochemical, Homo sapiens.

Substrate in data set [2]: Nc1ncnc2c1ncn2[C@@H]1O[C@H](COP(=O)(O)OP(=O)(O)OC[C@H]2O[C@H](Oc3ccc([N+](=O)[O-])cc3)[C@H](O)[C@@H]2O)[C@@H](O)[C@H]1O
Type of data set: biochemical, Homo sapiens. To be noted: Mg2+ ([…] MgCl2 in assay buffer).

Substrate in data set [3]: Nc1ncnc2c1ncn2[C@@H]1O[C@H](COP(=O)(O)OP(=O)(O)OC[C@H]2O[C@H](Oc3ccc([N+](=O)[O-])cc3)[C@H](O)[C@@H]2O)[C@@H](O)[C@H]1O
Type of data set: biochemical, Tetrahymena thermophila.

Substrate in data set [4]: Nc1ncnc2c1ncn2[C@@H]1O[C@H](COP(=O)(O)OP(=O)(O)OC[C@H]2O[C@H](Oc3ccc4c(C(F)(F)F)cc(=O)oc4c3)[C@H](O)[C@@H]2O)[C@@H](O)[C@H]1O
It counts as biochemical, Tetrahymena thermophila.

B1: PARG (poly(ADP-ribose) glycohydrolase) (Homo sapiens) (protein)
chain: MNAGPGCEPCTKRPRWGAATTSPAASDARSFPSRQRRVLDPKDAHVQFRVPPSSPACVPGRAGQHRGSATSLVFKQKTITSWMDTKGIKTAESESLDSKENNNTRIESMMSSVQKDNFYQHNVEKLENVSQLSLDKSPTEKSTQYLNQHQTAAMCKWQNEGKHTEQLLESEPQTVTLVPEQFSNANIDRSPQNDDHSDTDSEENRDNQQFLTTVKLANAKQTTEDEQAREAKSHQKCSKSCDPGEDCASCQQDEIDVVPESPLSDVGSEDVGTGPKNDNKLTRQESCLGNSPPFEKESEPESPMDVDNSKNSCQDSEADEETSPGFDEQEDGSSSQTANKPSRFQARDADIEFRKRYSTKGGEVRLHFQFEGGESRTGMNDLNAKLPGNISSLNVECRNSKQHGKKDSKITDHFMRLPKAEDRRKEQWETKHQRTERKIPKYVPPHLSPDKKWLGTPIEEMRRMPRCGIRLPLLRPSANHTVTIRVDLLRAGEVPKPFPTHYKDLWDNKHVKMPCSEQNLYPVEDENGERTAGSRWELIQTALLNKFTRPQNLKDAILKYNVAYSKKWDFTALIDFWDKVLEEAEAQHLYQSILPDMVKIALCLPNICTQPIPLLKQKMNHSITMSQEQIASLLANAFFCTFPRRNAKMKSEYSSYPDINFNRLFEGRSSRKPEKLKTLFCYFRRVTEKKPTGLVTFTRQSLEDFPEWERCEKPLTRLHVTYEGTIEENGQGMLQVDFANRFVGGGVTSAGLVQEEIRFLINPELIISRLFTEVLDHNECLIITGTEQYSEYTGYAETYRWSRSHEDGSERDDWQRRCTEIVAIDALHFRRYLDQFVPEKMRRELNKAYCGFLRPGVSSENLSAVATGNWGCGAFGGDARLKALIQILAAAAAERDVVYFTFGDSELMRDIYSMHIFLTERKLTVGDVYKLLLRYYNEECRNCSTPGPDIKLYPFIYHAVESCAETADHSGQRTGT
B1: in data set [1], the Km was found to be 66.2 ± 15 µM and the Vmax came out at 0.84 µmol/min/mg.

B2: ARH3 (ADP-ribosyl hydrolase 3, ADPRHL2) (Homo sapiens) (protein)
chain: MAAAAMAAAAGGGAGAARSLSRFRGCLAGALLGDCVGSFYEAHDTVDLTSVLRHVQSLEPDPGTPGSERTEALYYTDDTAMARALVQSLLAKEAFDEVDMAHRFAQEYKKDPDRGYGAGVVTVFKKLLNPKCRDVFEPARAQFNGKGSYGNGGAMRVAGISLAYSSVQDVQKFARLSAQLTHASSLGYNGAILQALAVHLALQGESSSEHFLKQLLGHMEDLEGDAQSVLDARELGMEERPYSSRLKKIGELLDQASVTREEVVSELGNGIAAFESVPTAIYCFLRCMEPDPEIPSAFNSLQRTLIYSISLGGDTDTIATMAGAIAGAYYGMDQVPESWQQSCEGYEETDILAQSLHRVFQKS
B2: in data set [2], the Km turned out to be 3.2 ± 0.6 µM and the Vmax turned out to be 1.7 µmol/min/mg. Also, in data set [1] (Mg2+ ([…] MgCl2 in assay buffer)), the Km was found to be 6.3 ± 0.2 µM and the maximal velocity (Vmax) amounted to 1.61 µmol/min/mg.

B3: ttPARG (T. thermophila PARG) (Tetrahymena thermophila) (protein)
chain: MIEAEKQENKKIQDYQFPLPQKNSELWIIQKKTLQDLSSGKQKLDSFQSLESILEILRDSKNQNDEKYFNLKAVFEQLDKEEQTYFLEQFIPKICQLVLKIKKKQLKNQIPKESKIYEAAFSREEISYYVSCMFLCILKDQDRKIYKDFRLIYLKDLVQQINIRRQEKIKCFYEYLKQALDFSEKESKEVVIFQRINCGQLEDYENWVDKLKAIKLKNVQLTDDKLIEDFPGTLQVDFANCDIGGGILGNGLVQEEIRFCVCPEMLVSLLVFDQSMEANEVIIMKGIKQYSDYQGYSNSFRFVKMGNSKIQKQKRNNPQTILAIDALCFNSSDNQFSEVNVSRELNKSYMGFKQEDQLKTISTGKWGCGAFLGVFDLKFAIQWIASSRSNKKMIICTFQDEQTTKQIQQVFDLYKQKNASIFLKLVMDYPNSKYMEDYTLLEYLIELGKEKATSKNS
Regarding B3, in data set [3], the Km was determined as 210 ± 10 µM and the Vmax turned out to be 16.9 µmol/min/mg. Further, in data set [4], the Km was 210 ± 13 µM and the Vmax amounted to 28.6 µmol/min/mg.
